Measured values: patent publication US20100136539A1

Legend:
Ezrin (human) [1] = target: Ezrin (human) (UniProt P15311); experiment: Vidas sandwich ELISA, 1/50 Caco2 lysate; negative control as capture, detection 4G11B5-biotin
Ezrin (human) [2] = target: Ezrin (human) (UniProt P15311); experiment: Vidas sandwich ELISA, 1/50 Caco2 lysate; negative control as capture, detection 4A7A6C1-biotin

Sequence of UniProt P15311 (P15311 whole entry): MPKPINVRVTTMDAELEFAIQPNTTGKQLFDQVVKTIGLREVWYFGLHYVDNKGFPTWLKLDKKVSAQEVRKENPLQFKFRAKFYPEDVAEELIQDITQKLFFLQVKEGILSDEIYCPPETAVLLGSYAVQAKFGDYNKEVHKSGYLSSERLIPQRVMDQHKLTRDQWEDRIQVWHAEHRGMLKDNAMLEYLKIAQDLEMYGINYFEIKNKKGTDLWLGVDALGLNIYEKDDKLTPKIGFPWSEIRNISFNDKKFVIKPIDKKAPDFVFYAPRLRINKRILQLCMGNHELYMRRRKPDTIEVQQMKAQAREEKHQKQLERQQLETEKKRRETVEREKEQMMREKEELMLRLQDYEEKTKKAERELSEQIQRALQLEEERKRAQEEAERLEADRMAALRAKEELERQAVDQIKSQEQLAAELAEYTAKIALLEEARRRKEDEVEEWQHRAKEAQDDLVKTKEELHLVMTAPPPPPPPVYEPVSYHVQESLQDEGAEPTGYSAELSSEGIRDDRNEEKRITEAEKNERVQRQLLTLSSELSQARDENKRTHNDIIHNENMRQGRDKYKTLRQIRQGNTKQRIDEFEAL

Negative control
Vidas sandwich immunoassay signal (Ezrin (human) [1]): 2.5 RFV | Vidas sandwich immunoassay signal (Ezrin (human) [2]): 3 RFV
